What all share (test): cell-based or functional assay
Test [1] addresses PTH receptor 1 on MC3T3-E1 cells (murine) (UniProt P41593).
In test [2] the target is CYP2D6 (Homo sapiens, UniProt P10635).
Test [3] addresses Saos-2 PTH1R (UniProt Q03431).

We go through 9 molecules from patent publication US20100048462A1, “TRUNCATED PTH PEPTIDES WITH A CYCLIC CONFORMATION” (Zealand Pharma A/S, priority 2006, published 2010).

Read-outs that look alike come from different tables or passages of the source. Bridge positions count the residues as written; N and C are the ends. Square brackets hold non-standard residues; d marks the D form. hArg = N=C(N)NCCCC[C@H](N)C(=O)O; Ac5c = NC1(C(=O)O)CCCC1; Dab = NCC[C@H](N)C(=O)O; Dap = NC[C@H](N)C(=O)O; Aib = CC(C)(N)C(=O)O

Sequence of CYP2D6 (P10635 whole entry): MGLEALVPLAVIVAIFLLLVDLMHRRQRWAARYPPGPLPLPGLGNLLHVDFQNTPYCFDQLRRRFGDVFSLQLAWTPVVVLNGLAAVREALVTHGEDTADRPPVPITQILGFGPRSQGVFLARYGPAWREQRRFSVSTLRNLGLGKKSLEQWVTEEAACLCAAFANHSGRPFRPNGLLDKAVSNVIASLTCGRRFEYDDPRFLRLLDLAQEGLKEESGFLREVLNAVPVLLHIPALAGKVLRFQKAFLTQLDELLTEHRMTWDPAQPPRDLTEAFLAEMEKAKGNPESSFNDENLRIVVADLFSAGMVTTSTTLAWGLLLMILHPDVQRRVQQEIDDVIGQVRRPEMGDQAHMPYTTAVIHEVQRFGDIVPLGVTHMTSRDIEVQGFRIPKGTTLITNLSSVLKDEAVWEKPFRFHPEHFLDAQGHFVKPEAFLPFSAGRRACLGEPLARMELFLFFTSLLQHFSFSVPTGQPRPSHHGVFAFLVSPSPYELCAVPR
Sequence of Saos-2 PTH1R (Q03431 27-593 limits assumed): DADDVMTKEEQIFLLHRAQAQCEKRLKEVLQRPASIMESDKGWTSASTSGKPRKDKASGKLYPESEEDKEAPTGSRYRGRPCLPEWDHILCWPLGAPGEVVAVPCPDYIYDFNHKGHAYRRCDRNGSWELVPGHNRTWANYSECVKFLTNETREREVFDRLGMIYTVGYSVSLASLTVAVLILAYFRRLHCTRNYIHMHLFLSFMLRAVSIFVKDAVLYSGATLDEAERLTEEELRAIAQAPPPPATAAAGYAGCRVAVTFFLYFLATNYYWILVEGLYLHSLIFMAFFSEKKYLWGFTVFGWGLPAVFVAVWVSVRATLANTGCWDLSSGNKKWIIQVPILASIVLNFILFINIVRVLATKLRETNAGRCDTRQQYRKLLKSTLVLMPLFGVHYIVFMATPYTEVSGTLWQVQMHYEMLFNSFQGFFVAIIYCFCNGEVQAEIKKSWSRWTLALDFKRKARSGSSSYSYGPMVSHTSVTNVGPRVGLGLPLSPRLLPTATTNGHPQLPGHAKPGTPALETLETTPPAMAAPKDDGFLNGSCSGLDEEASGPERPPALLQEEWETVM
Sequence of PTH receptor 1 on MC3T3-E1 cells (murine) (P41593 27-591): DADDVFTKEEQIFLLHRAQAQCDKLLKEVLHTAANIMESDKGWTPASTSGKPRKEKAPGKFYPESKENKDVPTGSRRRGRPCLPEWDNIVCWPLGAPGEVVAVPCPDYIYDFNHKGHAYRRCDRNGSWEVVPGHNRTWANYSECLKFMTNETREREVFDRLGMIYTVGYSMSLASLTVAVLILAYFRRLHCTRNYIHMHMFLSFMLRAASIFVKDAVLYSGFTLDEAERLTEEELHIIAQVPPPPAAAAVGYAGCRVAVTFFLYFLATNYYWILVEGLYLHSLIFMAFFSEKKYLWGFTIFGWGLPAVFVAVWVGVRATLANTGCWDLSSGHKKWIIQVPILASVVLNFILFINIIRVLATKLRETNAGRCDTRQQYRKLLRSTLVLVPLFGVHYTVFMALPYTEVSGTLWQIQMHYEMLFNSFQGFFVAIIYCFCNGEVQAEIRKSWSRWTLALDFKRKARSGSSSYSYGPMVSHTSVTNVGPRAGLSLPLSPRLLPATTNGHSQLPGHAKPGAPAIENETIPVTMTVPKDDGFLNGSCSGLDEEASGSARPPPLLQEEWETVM

In test [1], PTH(1-34) (peptide) displayed an Emax, cAMP efficacy assay in MC3T3-E1 cells of 4.4 pmol/well.

B1: H-Ac5c-Val-Aib-Glu-Ile-Gln-Leu-Met-His-Gln-Har-Ala-Lys( )-Trp-Leu-Asn-Glu( )-NH2 (peptide)
chain: H-[Ac5c]V[Aib]EIQLMHQ[hArg]AKWLNE-NH2
modifications: lactam 13-17
SMILES: CC[C@H](C)[C@H](NC(=O)[C@H](CCC(=O)O)NC(=O)C(C)(C)NC(=O)[C@@H](NC(=O)C1(N)CCCC1)C(C)C)C(=O)N[C@@H](CCC(N)=O)C(=O)N[C@@H](CC(C)C)C(=O)N[C@@H](CCSC)C(=O)N[C@@H](Cc1c[nH]cn1)C(=O)N[C@@H](CCC(N)=O)C(=O)N[C@@H](CCCCNC(=N)N)C(=O)N[C@@H](C)C(=O)N[C@H]1CCCCNC(=O)CC[C@@H](C(N)=O)NC(=O)[C@H](CC(N)=O)NC(=O)[C@H](CC(C)C)NC(=O)[C@H](Cc2c[nH]c3ccccc23)NC1=O
For the molecule B1, the CYP2D6 activity (% of vehicle), dextrorphan formation rate in human liver microsomes, 10 µM peptide in test [2] was 85 % of vehicle. In addition, in test [3], the Emax, cAMP efficacy assay in Saos-2 cells (9T, trifluoroacetate salt) (relative to control (SEQ ID NO: 32)) came to 1.03 and the pEC50, cAMP efficacy assay in Saos-2 cells (9T, trifluoroacetate salt) was 7.85 -log(M).

B2: H-Ac5c-Val-Aib-Glu-Ile-Gln-Leu-Val-His-Gln-Har-Ala-Lys( )-Trp-Leu-Asn-Asp( )-NH2 (peptide)
chain: H-[Ac5c]V[Aib]EIQLVHQ[hArg]AKWLND-NH2
modifications: lactam 13-17
SMILES: CC[C@H](C)[C@H](NC(=O)[C@H](CCC(=O)O)NC(=O)C(C)(C)NC(=O)[C@@H](NC(=O)C1(N)CCCC1)C(C)C)C(=O)N[C@@H](CCC(N)=O)C(=O)N[C@@H](CC(C)C)C(=O)N[C@H](C(=O)N[C@@H](Cc1c[nH]cn1)C(=O)N[C@@H](CCC(N)=O)C(=O)N[C@@H](CCCCNC(=N)N)C(=O)N[C@@H](C)C(=O)N[C@H]1CCCCNC(=O)C[C@@H](C(N)=O)NC(=O)[C@H](CC(N)=O)NC(=O)[C@H](CC(C)C)NC(=O)[C@H](Cc2c[nH]c3ccccc23)NC1=O)C(C)C
Regarding B2, the CYP2D6 activity (% of vehicle), dextrorphan formation rate in human liver microsomes, 10 µM peptide in test [2] was 92 % of vehicle. In test [3], the Emax, cAMP efficacy assay in Saos-2 cells (21T, trifluoroacetate salt) (relative to control (SEQ ID NO: 32)) was 1.4 and the pEC50, cAMP efficacy assay in Saos-2 cells (21T, trifluoroacetate salt) was 6.82 -log(M).

B3: H-Ac5c-Val-Aib-Glu-Ile-Gln-Leu-Met-His-Asn-Leu-Gly-Lys-His-Leu-Asn-Asp-NH2 (peptide)
chain: H-[Ac5c]V[Aib]EIQLMHNLGKHLND-NH2
SMILES: CC[C@H](C)[C@H](NC(=O)[C@H](CCC(=O)O)NC(=O)C(C)(C)NC(=O)[C@@H](NC(=O)C1(N)CCCC1)C(C)C)C(=O)N[C@@H](CCC(N)=O)C(=O)N[C@@H](CC(C)C)C(=O)N[C@@H](CCSC)C(=O)N[C@@H](Cc1c[nH]cn1)C(=O)N[C@@H](CC(N)=O)C(=O)N[C@@H](CC(C)C)C(=O)NCC(=O)N[C@@H](CCCCN)C(=O)N[C@@H](Cc1c[nH]cn1)C(=O)N[C@@H](CC(C)C)C(=O)N[C@@H](CC(N)=O)C(=O)N[C@@H](CC(=O)O)C(N)=O
Turning to B3, the CYP2D6 activity (% of vehicle), dextrorphan formation rate in human liver microsomes, 10 µM peptide in test [2] is 57 % of vehicle; in test [2] (record 2), 107 % of vehicle. Further, the Emax, cAMP efficacy assay in Saos-2 cells (34T, trifluoroacetate salt) (relative to control (SEQ ID NO: 32)) in test [3] was determined as 1.12. For the same molecule, in test [3], the pEC50, cAMP efficacy assay in Saos-2 cells (34T, trifluoroacetate salt) was 6.67 -log(M).

B4: H-Ac5c-Val-Aib-Glu-Ile-Gln-Leu-Leu-His-Gln-Har-Ala-Dpr( )-Trp-Leu-Asn-Asp( )-NH2 (peptide)
chain: H-[Ac5c]V[Aib]EIQLLHQ[hArg]A[Dap]WLND-NH2
modifications: lactam 13-17
SMILES: CC[C@H](C)[C@H](NC(=O)[C@H](CCC(=O)O)NC(=O)C(C)(C)NC(=O)[C@@H](NC(=O)C1(N)CCCC1)C(C)C)C(=O)N[C@@H](CCC(N)=O)C(=O)N[C@@H](CC(C)C)C(=O)N[C@@H](CC(C)C)C(=O)N[C@@H](Cc1c[nH]cn1)C(=O)N[C@@H](CCC(N)=O)C(=O)N[C@@H](CCCCNC(=N)N)C(=O)N[C@@H](C)C(=O)N[C@H]1CNC(=O)C[C@@H](C(N)=O)NC(=O)[C@H](CC(N)=O)NC(=O)[C@H](CC(C)C)NC(=O)[C@H](Cc2c[nH]c3ccccc23)NC1=O
On to B4, for which the CYP2D6 activity (% of vehicle), dextrorphan formation rate in human liver microsomes, 10 µM peptide in test [2] was 101 % of vehicle. Besides, in test [3], the Emax, cAMP efficacy assay in Saos-2 cells (17T, trifluoroacetate salt) (relative to control (SEQ ID NO: 32)) worked out at 1.25 and the pEC50, cAMP efficacy assay in Saos-2 cells (17T, trifluoroacetate salt) was 6.11 -log(M).

B5: H-Ac5c-V-Aib-…-NH2 (peptide)
chain: H-[Ac5c]V[Aib]EIQLMHNLGKHLNS-NH2
SMILES: CC[C@H](C)[C@H](NC(=O)[C@H](CCC(=O)O)NC(=O)C(C)(C)NC(=O)[C@@H](NC(=O)C1(N)CCCC1)C(C)C)C(=O)N[C@@H](CCC(N)=O)C(=O)N[C@@H](CC(C)C)C(=O)N[C@@H](CCSC)C(=O)N[C@@H](Cc1c[nH]cn1)C(=O)N[C@@H](CC(N)=O)C(=O)N[C@@H](CC(C)C)C(=O)NCC(=O)N[C@@H](CCCCN)C(=O)N[C@@H](Cc1c[nH]cn1)C(=O)N[C@@H](CC(C)C)C(=O)N[C@@H](CC(N)=O)C(=O)N[C@@H](CO)C(N)=O
As for B5, the CYP2D6 activity (% of vehicle), dextrorphan formation rate in human liver microsomes, 10 µM peptide in test [2] is 48 % of vehicle. In test [3], the Emax, cAMP efficacy assay in Saos-2 cells (35T, trifluoroacetate salt) (relative to control (SEQ ID NO: 32)) was found to be 1.2 and the pEC50, cAMP efficacy assay in Saos-2 cells (35T, trifluoroacetate salt) is 5.09 -log(M).

B6: H-Ac5c-Val-Aib-Glu-Ile-Gln-Leu-Leu-His-Gln-Har-Ala-Dab( )-Trp-Leu-Asn-Asp( )-NH2 (peptide)
chain: H-[Ac5c]V[Aib]EIQLLHQ[hArg]A[Dab]WLND-NH2
modifications: lactam 13-17
SMILES: CC[C@H](C)[C@H](NC(=O)[C@H](CCC(=O)O)NC(=O)C(C)(C)NC(=O)[C@@H](NC(=O)C1(N)CCCC1)C(C)C)C(=O)N[C@@H](CCC(N)=O)C(=O)N[C@@H](CC(C)C)C(=O)N[C@@H](CC(C)C)C(=O)N[C@@H](Cc1c[nH]cn1)C(=O)N[C@@H](CCC(N)=O)C(=O)N[C@@H](CCCCNC(=N)N)C(=O)N[C@@H](C)C(=O)N[C@H]1CCNC(=O)C[C@@H](C(N)=O)NC(=O)[C@H](CC(N)=O)NC(=O)[C@H](CC(C)C)NC(=O)[C@H](Cc2c[nH]c3ccccc23)NC1=O
For the molecule B6, the CYP2D6 activity (% of vehicle), dextrorphan formation rate in human liver microsomes, 10 µM peptide in test [2] is 82 % of vehicle. In addition, in test [3], the Emax, cAMP efficacy assay in Saos-2 cells (41T, trifluoroacetate salt) (relative to control (SEQ ID NO: 32)) turned out to be 0.99 and the pEC50, cAMP efficacy assay in Saos-2 cells (41T, trifluoroacetate salt) was 7.19 -log(M).
For the molecule H-[Ac5c]V[Aib]EIQLLHQ[hArg]AKWLND-NH2 (lactam 13-17; also: acetate and trifluoroacetate salts) [H-Ac5c-Val-Aib-Glu-Ile-Gln-Leu-Leu-His-Gln-Har-Ala-Lys( )-Trp-Leu-Asn-Asp( )-NH2], in test [2], the CYP2D6 activity (% of vehicle), dextrorphan formation rate in human liver microsomes, 10 µM peptide is 90 % of vehicle. In addition, in test [3], the Emax, cAMP efficacy assay in Saos-2 cells (19A/T, acetate/trifluoroacetate salts) (relative to control (SEQ ID NO: 32)) is 1.05 and the pEC50, cAMP efficacy assay in Saos-2 cells (19A/T, acetate/trifluoroacetate salts) is 7.99 -log(M).

B7: H-Ac5c-Val-Aib-Glu-Ile-Gln-Leu-Met-His-Gln-Har-Ala-Cys( )-Trp-Leu-Asn-Cys( )-NH2 (peptide)
chain: H-[Ac5c]V[Aib]EIQLMHQ[hArg]ACWLNC-NH2
modifications: disulfide 13-17
SMILES: CC[C@H](C)[C@H](NC(=O)[C@H](CCC(=O)O)NC(=O)C(C)(C)NC(=O)[C@@H](NC(=O)C1(N)CCCC1)C(C)C)C(=O)N[C@@H](CCC(N)=O)C(=O)N[C@@H](CC(C)C)C(=O)N[C@@H](CCSC)C(=O)N[C@@H](Cc1c[nH]cn1)C(=O)N[C@@H](CCC(N)=O)C(=O)N[C@@H](CCCCNC(=N)N)C(=O)N[C@@H](C)C(=O)N[C@H]1CSSC[C@@H](C(N)=O)NC(=O)[C@H](CC(N)=O)NC(=O)[C@H](CC(C)C)NC(=O)[C@H](Cc2c[nH]c3ccccc23)NC1=O
For B7, the CYP2D6 activity (% of vehicle), dextrorphan formation rate in human liver microsomes, 10 µM peptide in test [2] was 85 % of vehicle. In addition, in test [3], the Emax, cAMP efficacy assay in Saos-2 cells (7T, trifluoroacetate salt) (relative to control (SEQ ID NO: 32)) is 1.2 and the pEC50, cAMP efficacy assay in Saos-2 cells (7T, trifluoroacetate salt) was 7.3 -log(M).
